{
  "source": "paper PMC5350102",
  "key": {"nNOS [1]": {"biological_target": "nNOS (UniProt P29475)", "experiment": "solid-phase no-wash assay", "conditions": "cited from earlier work"}, "GST-nNOS[1–155] (human)": {"biological_target": "GST-nNOS[1–155] (human) (UniProt P29475)", "experiment": "pull-down; solid-phase no-wash binding assay: 5 μl beads bound to 1 μg GST-fused nNOS protein (or GST for background) rotated with His-TAT-NOS1AP peptides for 1 h at 4°C; unbound removed by centrifugation in filter plates, no wash; bound peptide quantified by fluorescent immunoblot; GST background subtracted; 1-site quadratic fit"}, "nNOS [2]": {"biological_target": "nNOS (UniProt P29475)", "conditions": "cited from earlier work"}, "His-nNOS[1–155] (human)": {"biological_target": "His-nNOS[1–155] (human) (UniProt P29475)", "experiment": "fluorescence polarisation; competition FP: 1 μM F-GDLV, 4 μM His-nNOS(1–155), increasing competitor; approximate Kc (dissociation constant of the competitor, affinity for the nNOS PDZ pocket) from the single-site competition formula"}},
  "note": "Read-outs that look alike come from different tables or passages of the source.",
  "data": [
    {"substance": "TAT-NOS1AP 400-506 (from UniProt O75052)", "values": [
      {"measurement": "Kd", "setting": "nNOS [1]", "result": 0.75, "unit": "µM"}
    ]},
    {"substance": "His-TAT-NOS1AP[400–503] F431A, denatured (from UniProt O75052 400-503) (domain or fragment)", "values": [
      {"measurement": "Kd", "setting": "GST-nNOS[1–155] (human)", "result": 100, "unit": "µM"}
    ]},
    {"substance": "NOS1AP-9C", "values": [
      {"measurement": "Kd", "setting": "nNOS [2]", "result": "> 600", "unit": "µM"}
    ]},
    {"substance": "NOS1AP[400–503] F431A cleaved from GST (from UniProt O75052 400-503) (domain or fragment)", "values": [
      {"measurement": "Ki", "setting": "His-nNOS[1–155] (human)", "result": "> 10", "unit": "µM"}
    ]}
  ]
}
